# Reference: US20050227296A1, “Method for indentifying integrin antagonists” (The General Hospital Corporation, a Massachusetts …, priority 1988, published 2005)
# B1: r11aA: recombinant CD11a A domain expressed as GST fusion protein (protein)
# chain: GNVDLVFLFDGSMSLQPDEFQKILDFMKDVMKKLSNTSYQFAAVQFSTSYKTEFDFSDYVKRKDPDALLKHVKHMLLLTNTFGAINYVATEVFREELGARPDATKVLIIITDGEATDSGNIDAAKDIIRYIIGIGKHFQTKESQETLHKFASKPASEFVKILDTFEKLKDLFTELQKKIY
# Target: T1, EAiC3b (erythrocytes coated with iC3b) (Homo sapiens, UniProt P01024)
# T1 construct: EAiC3b (erythrocytes coated with iC3b) were generated by treating EAC3b with purified human factors H and I; tissue Sigma Chemical Co. (C5-deficient human serum); host or cells: human serum C3 deposited on IgM-coated erythrocytes
# T1 sequence (P01024 749-1303 limits assumed): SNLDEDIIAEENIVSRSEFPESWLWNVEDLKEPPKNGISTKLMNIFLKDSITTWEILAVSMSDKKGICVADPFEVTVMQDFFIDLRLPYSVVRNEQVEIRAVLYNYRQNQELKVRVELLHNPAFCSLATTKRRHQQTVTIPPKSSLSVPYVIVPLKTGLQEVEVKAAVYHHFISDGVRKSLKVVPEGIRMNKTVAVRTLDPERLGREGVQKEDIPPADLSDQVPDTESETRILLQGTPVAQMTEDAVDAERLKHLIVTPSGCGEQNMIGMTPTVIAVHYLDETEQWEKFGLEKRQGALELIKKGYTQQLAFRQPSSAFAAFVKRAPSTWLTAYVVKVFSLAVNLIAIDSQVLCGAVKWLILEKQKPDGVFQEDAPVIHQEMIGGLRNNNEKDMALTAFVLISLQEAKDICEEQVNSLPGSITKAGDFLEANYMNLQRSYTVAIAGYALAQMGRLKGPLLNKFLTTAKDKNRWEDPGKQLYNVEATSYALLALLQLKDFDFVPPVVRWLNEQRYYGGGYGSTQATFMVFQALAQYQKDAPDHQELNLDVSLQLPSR
# T1 sequence (P01024 23-667 partner limits assumed): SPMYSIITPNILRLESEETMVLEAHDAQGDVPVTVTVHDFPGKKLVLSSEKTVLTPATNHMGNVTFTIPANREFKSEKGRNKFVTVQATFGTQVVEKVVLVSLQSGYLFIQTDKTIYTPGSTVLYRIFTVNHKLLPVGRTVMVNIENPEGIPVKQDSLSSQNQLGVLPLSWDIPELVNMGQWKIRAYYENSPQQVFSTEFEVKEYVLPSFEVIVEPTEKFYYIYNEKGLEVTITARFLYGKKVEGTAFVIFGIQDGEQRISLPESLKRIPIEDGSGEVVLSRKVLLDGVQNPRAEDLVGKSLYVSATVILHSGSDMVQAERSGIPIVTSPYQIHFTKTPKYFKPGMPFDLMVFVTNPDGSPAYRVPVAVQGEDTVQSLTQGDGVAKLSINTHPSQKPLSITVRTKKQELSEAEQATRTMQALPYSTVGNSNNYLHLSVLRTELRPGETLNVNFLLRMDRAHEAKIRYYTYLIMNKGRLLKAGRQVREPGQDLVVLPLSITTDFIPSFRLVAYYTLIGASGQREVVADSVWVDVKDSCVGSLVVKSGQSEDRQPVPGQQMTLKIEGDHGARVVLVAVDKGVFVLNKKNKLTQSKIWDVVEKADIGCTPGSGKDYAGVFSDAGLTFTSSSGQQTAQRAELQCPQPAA
# T1 sequence (P01024 1321-1663 partner limits assumed): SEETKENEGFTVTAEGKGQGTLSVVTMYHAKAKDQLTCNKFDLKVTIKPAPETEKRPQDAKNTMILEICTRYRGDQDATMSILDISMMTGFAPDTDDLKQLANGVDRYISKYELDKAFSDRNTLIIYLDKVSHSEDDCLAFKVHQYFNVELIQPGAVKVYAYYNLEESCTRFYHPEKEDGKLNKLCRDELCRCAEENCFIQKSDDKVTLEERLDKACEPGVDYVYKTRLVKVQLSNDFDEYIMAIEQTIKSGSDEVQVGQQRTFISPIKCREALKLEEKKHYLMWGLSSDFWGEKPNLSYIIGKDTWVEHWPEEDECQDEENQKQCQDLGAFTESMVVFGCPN
# Assay: Erythrocyte binding assay, EAiC3b on immobilized proteins or peptides
# Details: 37° C., divalent cations
# Procedure: Erythrocytes (E) coated with rabbit anti-E IgM (EA) or C3b (EAC3b) were prepared as described by Dana et al. (J. Immunol. 73:153, 1984). EAiC3b (erythrocytes coated with iC3b) were generated by treating EAC3b with purified human factors H and I, or alternatively prepared from EA using C5-deficient human serum (Sigma Chemical Co., St. Louis, Mo.). EAiC3b cells were washed and stored in isotonic veronal-buffered saline (VBS^2+), pH 7.4, containing 0.15 mM calcium-1 mM magnesium (MgCl2+CaCl2) and 1 mg/ml Soybean Trypsin Inhibitor (STI; Worthington Biochemical Co., Freehold, N.J.) at 1.5×10^8 cells/ml. […]
# Immobilization of recombinant proteins and peptides: Purified recombinant A-domain was added to Immulon-2 96-well microtiter plates (Dynatech) overnight. […] Binding of the anti-CD11b mabs to the coated rA-domain was measured by ELISA and read using a plate reader (Molecular Dynamics).
# Erythrocyte binding assays: Fluoresceinated EAiC3b, EAC3b or EA were resuspended to 1.5×10^8/ml in buffer A, and added […] to wells containing immobilized proteins or peptides in a total volume of 100 ml. […] Fluorescence was quantified (excitatory wavelength, 490 nm, emission wavelength, 510 nm) using a SLM 8000 fluorometer (SLM Instruments, Urbana, Ill.). […] The effect of temperature was evaluated in the presence of 1 mM MnCl2 at 37° C. and at 4° C.
molecule,measurement,setting,value
B1,direct binding of EAiC3b to immobilized protein or peptide,listed as rA-domain derived from CD11a/CD18,did not bind
same,direct binding of EAiC3b to immobilized protein or peptide,listed as rCD11a A-domain,lack of binding
